From US20080311122, “Antagonists of Hmgb1 and/or Rage and Methods of Use Thereof” (Medimmune, LLC, published 2008)

Key:
[1] = target: T1, HMGB1 A-box peptide (Homo sapiens, UniProt P09429 SEQ:1-77); assay: affinity comparable to full-length HMGB1; data not shown; stated only as CpG DNA; details: protein: synthetic; tags: synthetic peptide, New England Peptide; label: biotin (ELISA)
T1 sequence: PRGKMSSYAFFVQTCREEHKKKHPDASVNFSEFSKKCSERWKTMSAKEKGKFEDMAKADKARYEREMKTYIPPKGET
Procedure: (§1) CpG ELISA: Proteins or peptides were diluted in PBS to the concentration of 5 μg/ml and coated onto plates at 4° C. o/n. Plates were blocked with 4% dry milk in PBS. Biotin labeled CpG-A alone or in complex with HMGB1 were incubated in the plates at 37° C. for 1 hr. and detected with HRP labeled strep-avidin.

[2] = target: HMGB1 B-box peptide (Homo sapiens, UniProt P09429 SEQ:1-69); assay: as above; details: protein: synthetic; tags: synthetic peptide, New England Peptide; label: biotin (ELISA)
Procedure: as §1

[3] = target: T2, HMGB1 (native, calf/bovine thymus) (Bos taurus, UniProt P10103 P10103:2-215); assay: apparent Kd; intrinsic tryptophan fluorescence quench, 1.7 uM HMGB1, 1:10 DPBS, 25 C; details: tags: none; purified from bovine thymus at Medimmune; label: biotin (ELISA)
Procedure: Tryptophan emission for CpG-A binding to HMGB1: Fluorescence titrations and spectra of HMGB-1 were carried out at 25° C. with a SPEX Fluoromax-3 spectrofluorimeter, monitoring the HMGB-1 intrinsic tryptophan emission at 347 nm (8 nm bandwidth) with 280 nm excitation (3 nm bandwidth) in a masked capped dual-pathlength (0.2×1.0 cm) quartz cell (Hellma Cells, Inc., Jamaica, N.Y.) upon stepwise addition of CpG-A (0.5 mM) to a 1.7 μM solution of HMGB-1 in 1:10 Dulbecco Phosphate Buffered Saline (PBS) solution (Invitrogen, Carlsbad, Calif.). Complex formation between HMGB-1 and the nucleic acid was monitored by the change in the initial fluorescence of the protein. HMGB-1 fractional saturation was inferred from the ratio of observed fluorescence change to maximal change (at saturation), Fₗᵢₘ, for each of the nucleic acid additions. Binding affinity was calculated from graphs of relative fluorescence intensity versus [nucleic acid base]/[protein].The occluded binding site size (n) was derived from the intersection of the extrapolated initial slope with the limiting fluorescence plateau in the equilibrium binding isotherms. The measurements for assessment of Tryptophan emission are reviewed in detail in Lakowicz, 2000, Photochem. Photobiol. 72, 421-437.
The binding of immobilized HMGB1 to soluble CpG-A was determined by ELISA (FIG. 33, top left). […]

[4] = target: T3, HMGB1 + RAGE/Fc complex (Bos taurus / Mus musculus, UniProt P10103;Q62151 P10103:2-215,Q62151:23-340); assay: ELISA; CpG-A associates with immobilized RAGE/Fc only when pre-complexed with HMGB1; CpG-A lowers EC50 of HMGB1-RAGE binding 100-1000 fold; details: tags: thymus HMGB1; RAGE Fc fusion (R&D Systems); label: biotin (ELISA)
T3 chain 1: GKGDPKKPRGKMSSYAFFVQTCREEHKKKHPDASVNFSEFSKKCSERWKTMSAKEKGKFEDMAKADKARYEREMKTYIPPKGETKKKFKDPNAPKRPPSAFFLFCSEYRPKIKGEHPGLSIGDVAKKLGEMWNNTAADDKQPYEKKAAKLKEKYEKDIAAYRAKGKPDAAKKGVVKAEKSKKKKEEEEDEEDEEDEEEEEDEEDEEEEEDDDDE
T3 chain 2: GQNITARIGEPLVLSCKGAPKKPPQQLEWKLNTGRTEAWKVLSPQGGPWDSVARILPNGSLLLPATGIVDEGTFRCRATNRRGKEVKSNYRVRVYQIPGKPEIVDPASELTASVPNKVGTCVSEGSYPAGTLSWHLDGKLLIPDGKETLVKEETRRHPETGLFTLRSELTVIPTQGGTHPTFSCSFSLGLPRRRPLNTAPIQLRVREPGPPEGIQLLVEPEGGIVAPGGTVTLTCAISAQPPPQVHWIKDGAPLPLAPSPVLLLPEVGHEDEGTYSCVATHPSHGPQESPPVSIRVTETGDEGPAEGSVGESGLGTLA
Procedure: as §1

[5] = target: T4, RAGE/Fc (Mus musculus, UniProt Q62151 Q62151:23-340); assay: ELISA, CpG-A alone on immobilized RAGE/Fc; details: tags: Fc fusion, R&D Systems; chain copies: 2; label: biotin (ELISA)
T4 chain: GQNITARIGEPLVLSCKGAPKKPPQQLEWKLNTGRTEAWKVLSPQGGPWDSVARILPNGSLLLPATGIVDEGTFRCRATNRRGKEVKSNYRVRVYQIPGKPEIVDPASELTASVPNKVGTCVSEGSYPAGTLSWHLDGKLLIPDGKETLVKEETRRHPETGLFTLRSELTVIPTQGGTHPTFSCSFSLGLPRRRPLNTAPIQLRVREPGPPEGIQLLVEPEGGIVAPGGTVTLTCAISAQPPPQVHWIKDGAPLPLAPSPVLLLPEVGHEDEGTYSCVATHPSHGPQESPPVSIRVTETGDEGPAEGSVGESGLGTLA

[6] = target: T2, HMGB1 (native, calf/bovine thymus); assay: non-stimulatory CpG-A control sequence bound; tryptophan fluorescence; details: tags: none; purified from bovine thymus at Medimmune
[7] = target: T3, HMGB1 + RAGE/Fc complex; assay: HMGB1/CpG-B complex failed to augment binding to RAGE; data not shown; details: tags: thymus HMGB1; RAGE Fc fusion (R&D Systems)
[8] = target: T2, HMGB1 (native, calf/bovine thymus); assay: data not shown; p546 states conversely that HMGB1 binds both A and B class ODN; details: tags: none; purified from bovine thymus at Medimmune
[9] = target: T2, HMGB1 (native, calf/bovine thymus); assay: random DNA not bound; details: tags: none; purified from bovine thymus at Medimmune

## GGGGGACGATCGTCGGGGGG (ssDNA) [CpG-A (ODN2216)]
[1]
  binding result: binds
[2]
  binding result: binds
[3]
  Kd: 70 nM
[4]
  binding result: binds
[5]
  binding result: no binding

## GGGGGAGCATGCTGGGGGGC (ssDNA) [control ODN for CpG-A (non-stimulatory)]
[6]
  binding result: binds

## TCGTCGTTTTGTCGTTTTGTCGTT (ssDNA) [CpG-B (ODN 2006)]
[7]
  binding result: no binding
[8]
  binding result: no binding

## GGTCGTTCCATTTTACTCCAC (ssDNA) [random DNA ODN]
[9]
  binding result: no binding
